Source: patent CN115490771A (HEFEI TIANGANG IMMUNOLOGY PHARMACEUTICAL CO LTD, dated 2022)

How the values were obtained:
[1] = biological target: T1, CD155蛋白 on CHO-K1-CD155 cells (Homo sapiens (Human), UniProt P15151 21-417); assay: flow cytometry on CHO-K1-CD155 cells, Alexa-647 anti-human Fc secondary antibody
T1 construct: also called CHO-K1-CD155细胞
T1 sequence: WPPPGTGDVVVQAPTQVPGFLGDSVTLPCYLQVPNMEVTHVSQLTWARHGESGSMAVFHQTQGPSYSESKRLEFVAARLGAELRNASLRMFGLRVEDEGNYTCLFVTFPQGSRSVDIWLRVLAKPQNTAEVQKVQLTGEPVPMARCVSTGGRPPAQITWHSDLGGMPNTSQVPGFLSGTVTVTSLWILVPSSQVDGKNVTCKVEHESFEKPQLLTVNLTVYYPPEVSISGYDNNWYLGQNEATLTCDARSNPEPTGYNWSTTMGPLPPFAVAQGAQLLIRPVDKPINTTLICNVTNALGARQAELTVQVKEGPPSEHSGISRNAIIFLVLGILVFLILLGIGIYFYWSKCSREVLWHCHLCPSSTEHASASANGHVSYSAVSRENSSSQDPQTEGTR

[2] = biological target: T2, CD155 on tumour cells (NCI-H1299, NCI-H358, HepG2) (UniProt P15151 21-417, limits assumed); assay: flow cytometry on NCI-H1299 lung cancer cells, Alexa-647 anti-human Fc secondary antibody
T2 construct: whole, on cells; also called 表达CD155的肺癌NCI-H1299细胞; NCI-H358细胞
T2 sequence (looked up): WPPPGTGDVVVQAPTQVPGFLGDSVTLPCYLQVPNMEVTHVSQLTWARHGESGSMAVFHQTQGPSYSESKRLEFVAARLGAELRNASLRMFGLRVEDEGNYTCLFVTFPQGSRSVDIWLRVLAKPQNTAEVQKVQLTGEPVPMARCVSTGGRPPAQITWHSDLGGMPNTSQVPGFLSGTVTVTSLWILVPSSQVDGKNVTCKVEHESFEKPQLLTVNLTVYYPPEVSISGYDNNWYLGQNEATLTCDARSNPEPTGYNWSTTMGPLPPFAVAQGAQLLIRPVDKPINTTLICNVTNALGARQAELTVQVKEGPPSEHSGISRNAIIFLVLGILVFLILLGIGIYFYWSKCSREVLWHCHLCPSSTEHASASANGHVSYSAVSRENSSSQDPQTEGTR

B1: 双特异抗体 CD3×TIGIT extra (重组双特异抗体, 实施例1) (bispecific antibody, IgG1)
chain 1: EVQLLESGGGLVQPGGSLKLSCAASGFTFNTYAMNWVRQAPGKGLEWVARIRSKYNNYATYYADSVKDRFTISRDDSKNTAYLQMNNLKTEDTAVYYCVRHGNFGNSYVSWFAYWGQGTLVTVSSGGGGSGGGGSGGGGSELVVTQEPSLTVSPGGTVTLTCRSSTGAVTTSNYANWVQQKPGQAPRGLIGGTNKRAPGTPARFSGSLLGGKAALTLSGVQPEDEAEYYCALWYSNLWVFGGGTKLTVLGGGGSPKSCDKTHTCPPCPAPEAAGGPSVFLFPPKPKDTLMISRTPEVTCVVVDVSHEDPEVKFNWYVDGVEVHNAKTKPREEQYNSTYRVVSVLTVLHQDWLNGKEYKCKVSNKALPAPIEKTISKAKGQPREPQVYTLPPSREEMTKNQVSLWCLVKGFYPSDIAVEWESNGQPENNYKTTPPVLDSDGSFFLYSKLTVDKSRWQQGNVFSCSVMHEALHNHYTQKSLSLSPGK
chain 2: MMTGTIETTGNISAEKGGSIILQCHLSSTTAQVTQVNWEQQDQLLAICNADLGWHISPSFKDRVAPGPGLGLTLQSLTVNDTGEYFCIYHTYPDGTYTGRIFLEVLESSVAEHGARFQIPGGGGSPKSCDKTHTCPPCPAPEAAGGPSVFLFPPKPKDTLMISRTPEVTCVVVDVSHEDPEVKFNWYVDGVEVHNAKTKPREEQYNSTYRVVSVLTVLHQDWLNGKEYKCKVSNKALPAPIEKTISKAKGQPREPQVYTLPPSREEMTKNQVSLSCAVKGFYPSDIAVEWESNGQPENNYKTTPPVLDSDGSFFLVSKLTVDKSRWQQGNVFSCSVMHEALHNHYTQKSLSLSPGK
notes: Two-chain heterodimer joined through knob-into-hole IgG1 Fc regions; also called 双特异性抗体; 重组抗体
- binding result [1]: binds
- binding result [2]: binds
